According to the supplement of paper PMC9112550, “Optimization of the antimicrobial peptide Bac7 by deep mutational scanning” (BMC Biology, 2022):

System: Escherichia coli TOP10
Assay: shrunken log2 fold change of peptide-encoding DNA abundance (4.5 h post-induction vs induction); higher = less antimicrobial activity (less host growth inhibition)
Conditions: time post-induction: 4.5 h; library: site-saturation at positions 5, 18, 19, 20
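Also: peptides expressed intracellularly from a pBAD plasmid library in pooled LB shake-flask culture, induced with 0.3% L-arabinose, DNA abundance read by NGS, three biological replicates, DESeq2 with apeglm shrinkage.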

| Sequence | shrunken log2 fold change |
| --- | --- |
| RRIRWRPPRLPRPRPRPNDDPRP | 0.0584 |
| RRIRWRPPRLPRPRPRPNFGPRP | 0.174 |
| RRIRWRPPRLPRPRPRPNGYPRP | 0.186 |
| RRIRWRPPRLPRPRPRPNHMPRP | -0.227 |
| RRIRWRPPRLPRPRPRPNIIPRP | -0.486 |
| RRIRWRPPRLPRPRPRPNILPRP | -0.402 |
| RRIRWRPPRLPRPRPRPNINPRP | -0.429 |
| RRIRWRPPRLPRPRPRPNKDPRP | -0.393 |
| RRIRWRPPRLPRPRPRPNKNPRP | -0.0787 |
| RRIRWRPPRLPRPRPRPNLEPRP | 0.322 |
| RRIRWRPPRLPRPRPRPNLLPRP | 0.0966 |
| RRIRWRPPRLPRPRPRPNLNPRP | -0.401 |
| RRIRWRPPRLPRPRPRPNLYPRP | -0.169 |
| RRIRWRPPRLPRPRPRPNMMPRP | 0.00802 |
| RRIRWRPPRLPRPRPRPNMNPRP | -0.345 |
| RRIRWRPPRLPRPRPRPNNGPRP | -0.165 |
| RRIRWRPPRLPRPRPRPNNHPRP | -0.588 |
| RRIRWRPPRLPRPRPRPNNLPRP | -0.513 |
| RRIRWRPPRLPRPRPRPNPCPRP | -0.0647 |
| RRIRWRPPRLPRPRPRPNPEPRP | -0.0123 |
| RRIRWRPPRLPRPRPRPNPIPRP | -0.149 |
| RRIRWRPPRLPRPRPRPNPQPRP | -0.0303 |
| RRIRWRPPRLPRPRPRPNQNPRP | -0.221 |
| RRIRWRPPRLPRPRPRPNQPPRP | 0.198 |
| RRIRWRPPRLPRPRPRPNRNPRP | -0.602 |

| Sequence | shrunken log2 fold change |
| --- | --- |
| RRIRWRPPRLPRPRPRPNSCPRP | 0.0578 |
| RRIRWRPPRLPRPRPRPNSTPRP | -0.326 |
| RRIRWRPPRLPRPRPRPNVDPRP | -0.0535 |
| RRIRWRPPRLPRPRPRPNVWPRP | -0.308 |
| RRIRWRPPRLPRPRPRPNVYPRP | -0.234 |
| RRIRWRPPRLPRPRPRPNWFPRP | 0.156 |
| RRIRWRPPRLPRPRPRPPAKPRP | 0.56 |
| RRIRWRPPRLPRPRPRPPASPRP | 0.319 |
| RRIRWRPPRLPRPRPRPPCDPRP | 0.255 |
| RRIRWRPPRLPRPRPRPPCGPRP | 0.255 |
| RRIRWRPPRLPRPRPRPPCPPRP | 0.138 |
| RRIRWRPPRLPRPRPRPPCYPRP | -0.436 |
| RRIRWRPPRLPRPRPRPPDMPRP | 0.0014 |
| RRIRWRPPRLPRPRPRPPGCPRP | 0.975 |
| RRIRWRPPRLPRPRPRPPGLPRP | 0.601 |
| RRIRWRPPRLPRPRPRPPGSPRP | 0.333 |
| RRIRWRPPRLPRPRPRPPHNPRP | 0.527 |
| RRIRWRPPRLPRPRPRPPHTPRP | 0.494 |
| RRIRWRPPRLPRPRPRPPIFPRP | 0.488 |
| RRIRWRPPRLPRPRPRPPKAPRP | -0.0568 |
| RRIRWRPPRLPRPRPRPPKRPRP | 0.388 |
| RRIRWRPPRLPRPRPRPPLVPRP | 0.443 |
| RRIRWRPPRLPRPRPRPPMAPRP | 0.598 |
| RRIRWRPPRLPRPRPRPPNWPRP | 0.603 |
| RRIRWRPPRLPRPRPRPPPTPRP | 1.59 |

| Sequence | shrunken log2 fold change |
| --- | --- |
| RRIRWRPPRLPRPRPRPPQHPRP | 0.275 |
| RRIRWRPPRLPRPRPRPPQIPRP | 0.117 |
| RRIRWRPPRLPRPRPRPPQMPRP | 0.592 |
| RRIRWRPPRLPRPRPRPPQSPRP | 0.128 |
| RRIRWRPPRLPRPRPRPPRDPRP | 0.661 |
| RRIRWRPPRLPRPRPRPPRKPRP | 0.731 |
| RRIRWRPPRLPRPRPRPPRNPRP | 0.794 |
| RRIRWRPPRLPRPRPRPPRPPRP | 0.859 |
| RRIRWRPPRLPRPRPRPPTQPRP | 0.312 |
| RRIRWRPPRLPRPRPRPPVGPRP | 0.167 |
| RRIRWRPPRLPRPRPRPPWLPRP | 0.526 |
| RRIRWRPPRLPRPRPRPQCNPRP | -0.0929 |
| RRIRWRPPRLPRPRPRPQDKPRP | -0.208 |
| RRIRWRPPRLPRPRPRPQDNPRP | -0.421 |
| RRIRWRPPRLPRPRPRPQDWPRP | 0.36 |
| RRIRWRPPRLPRPRPRPQELPRP | -0.0075 |
| RRIRWRPPRLPRPRPRPQEMPRP | -0.0845 |
| RRIRWRPPRLPRPRPRPQGIPRP | 0.102 |
| RRIRWRPPRLPRPRPRPQIIPRP | -0.805 |
| RRIRWRPPRLPRPRPRPQITPRP | -0.216 |
| RRIRWRPPRLPRPRPRPQMAPRP | 0.242 |
| RRIRWRPPRLPRPRPRPQMQPRP | 0.0894 |
| RRIRWRPPRLPRPRPRPQNHPRP | -0.585 |
| RRIRWRPPRLPRPRPRPQNLPRP | -0.103 |
| RRIRWRPPRLPRPRPRPQNYPRP | -0.445 |

| Sequence | shrunken log2 fold change |
| --- | --- |
| RRIRWRPPRLPRPRPRPQQNPRP | -0.00819 |
| RRIRWRPPRLPRPRPRPQRDPRP | -0.0245 |
| RRIRWRPPRLPRPRPRPQRHPRP | 0.163 |
| RRIRWRPPRLPRPRPRPQRIPRP | 0.107 |
| RRIRWRPPRLPRPRPRPQRQPRP | 0.123 |
| RRIRWRPPRLPRPRPRPQSVPRP | 0.119 |
| RRIRWRPPRLPRPRPRPQTHPRP | 1 |
| RRIRWRPPRLPRPRPRPQTLPRP | 0.132 |
| RRIRWRPPRLPRPRPRPQTMPRP | -0.00112 |
| RRIRWRPPRLPRPRPRPQTPPRP | 1.07 |
| RRIRWRPPRLPRPRPRPQWIPRP | 0.0797 |
| RRIRWRPPRLPRPRPRPRANPRP | 0.425 |
| RRIRWRPPRLPRPRPRPRCVPRP | 0.117 |
| RRIRWRPPRLPRPRPRPRDMPRP | -0.255 |
| RRIRWRPPRLPRPRPRPREWPRP | 1.22 |
| RRIRWRPPRLPRPRPRPRFSPRP | 0.0681 |
| RRIRWRPPRLPRPRPRPRGGPRP | 0.984 |
| RRIRWRPPRLPRPRPRPRHAPRP | 0.0251 |
| RRIRWRPPRLPRPRPRPRICPRP | -0.0691 |
| RRIRWRPPRLPRPRPRPRIWPRP | -0.0288 |
| RRIRWRPPRLPRPRPRPRKEPRP | 0.0466 |
| RRIRWRPPRLPRPRPRPRKHPRP | 0.15 |
| RRIRWRPPRLPRPRPRPRKMPRP | 0.382 |
| RRIRWRPPRLPRPRPRPRMEPRP | 0.439 |
| RRIRWRPPRLPRPRPRPRMQPRP | 0.329 |

| Sequence | shrunken log2 fold change |
| --- | --- |
| RRIRWRPPRLPRPRPRPRPDPRP | 0.518 |
| RRIRWRPPRLPRPRPRPRQNPRP | 0.448 |
| RRIRWRPPRLPRPRPRPRQQPRP | -0.0369 |
| RRIRWRPPRLPRPRPRPRVIPRP | -0.233 |
| RRIRWRPPRLPRPRPRPSARPRP | 0.54 |
| RRIRWRPPRLPRPRPRPSCDPRP | 0.574 |
| RRIRWRPPRLPRPRPRPSCHPRP | -0.066 |
| RRIRWRPPRLPRPRPRPSCRPRP | 0.0511 |
| RRIRWRPPRLPRPRPRPSDYPRP | 0.0192 |
| RRIRWRPPRLPRPRPRPSFNPRP | -0.365 |
| RRIRWRPPRLPRPRPRPSIFPRP | -0.396 |
| RRIRWRPPRLPRPRPRPSKSPRP | -0.0449 |
| RRIRWRPPRLPRPRPRPSLKPRP | 0.0451 |
| RRIRWRPPRLPRPRPRPSMIPRP | -0.12 |
| RRIRWRPPRLPRPRPRPSMRPRP | 0.707 |
| RRIRWRPPRLPRPRPRPSMTPRP | 0.178 |
| RRIRWRPPRLPRPRPRPSQRPRP | -0.0741 |
| RRIRWRPPRLPRPRPRPSQVPRP | -0.0348 |
| RRIRWRPPRLPRPRPRPSSCPRP | -0.0941 |
| RRIRWRPPRLPRPRPRPSSKPRP | -0.369 |
| RRIRWRPPRLPRPRPRPSVRPRP | 0.117 |
| RRIRWRPPRLPRPRPRPTANPRP | 0.399 |
| RRIRWRPPRLPRPRPRPTCFPRP | 0.0863 |
| RRIRWRPPRLPRPRPRPTCIPRP | 0.248 |
| RRIRWRPPRLPRPRPRPTDMPRP | 0.00348 |

| Sequence | shrunken log2 fold change |
| --- | --- |
| RRIRWRPPRLPRPRPRPTDPPRP | 0.374 |
| RRIRWRPPRLPRPRPRPTDWPRP | 0.581 |
| RRIRWRPPRLPRPRPRPTENPRP | 0.0907 |
| RRIRWRPPRLPRPRPRPTFTPRP | 0.195 |
| RRIRWRPPRLPRPRPRPTGDPRP | 0.241 |
| RRIRWRPPRLPRPRPRPTGIPRP | 0.0938 |
| RRIRWRPPRLPRPRPRPTGWPRP | 0.594 |
| RRIRWRPPRLPRPRPRPTIFPRP | 0.0443 |
| RRIRWRPPRLPRPRPRPTKQPRP | 0.0132 |
| RRIRWRPPRLPRPRPRPTLIPRP | 0.0335 |
| RRIRWRPPRLPRPRPRPTLWPRP | 0.611 |
| RRIRWRPPRLPRPRPRPTMNPRP | -0.225 |
| RRIRWRPPRLPRPRPRPTMQPRP | 0.13 |
| RRIRWRPPRLPRPRPRPTMWPRP | 0.615 |
| RRIRWRPPRLPRPRPRPTMYPRP | 0.00431 |
| RRIRWRPPRLPRPRPRPTNEPRP | 0.225 |
| RRIRWRPPRLPRPRPRPTPCPRP | 0.212 |
| RRIRWRPPRLPRPRPRPTPFPRP | 0.153 |
| RRIRWRPPRLPRPRPRPTRNPRP | -0.0437 |
| RRIRWRPPRLPRPRPRPTSTPRP | 0.0842 |
| RRIRWRPPRLPRPRPRPTSVPRP | 0.233 |
| RRIRWRPPRLPRPRPRPTWIPRP | 0.0497 |
| RRIRWRPPRLPRPRPRPTWPPRP | 0.466 |
| RRIRWRPPRLPRPRPRPTWWPRP | 0.79 |
| RRIRWRPPRLPRPRPRPVAYPRP | -0.0891 |
